Assay results taken from patent publication US20260116951A1 (DUCENTIS BIOTHERAPEUTICS, published 2026).

Tests used:
[1] = target: T1, Recombinant Human CD200R, His-tagged (Creative Biomart CD200R1-320H) (human, UniProt Q8TD46 27-266); assay: SPR
T1 construct: Bought; also called human CD200 receptor; not shown: His tag
T1 sequence (looked up): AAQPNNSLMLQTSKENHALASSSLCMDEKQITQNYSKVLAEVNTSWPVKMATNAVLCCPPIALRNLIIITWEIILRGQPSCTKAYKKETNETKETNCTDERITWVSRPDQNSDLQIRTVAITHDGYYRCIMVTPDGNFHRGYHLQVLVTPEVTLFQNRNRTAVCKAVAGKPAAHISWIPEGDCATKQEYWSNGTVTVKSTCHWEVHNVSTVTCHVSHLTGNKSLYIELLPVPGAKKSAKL
Source text: Curves obtained were fitted to 1:1 Langmuir binding model by setting Rmax and RI as local parameters. Rate equations using standard parameters (e.g. ligand concentration, time) were used for iterative curve fitting. […] Means of 2 experiments carried out on the same day are shown with standard deviation. Residue numbering for CD200 proteins refers to the pre-protein, containing a signal peptide which is cleaved during insertion into the endoplasmic reticulum.

[2] = target: T2, Mouse CD200R protein (Creative Biomart CD200R1-3280M) (mouse, UniProt Q9ES57 26-238); assay: SPR (BIAcore)
T2 construct: also called Murine CD200R1; murine CD200R
T2 sequence (looked up): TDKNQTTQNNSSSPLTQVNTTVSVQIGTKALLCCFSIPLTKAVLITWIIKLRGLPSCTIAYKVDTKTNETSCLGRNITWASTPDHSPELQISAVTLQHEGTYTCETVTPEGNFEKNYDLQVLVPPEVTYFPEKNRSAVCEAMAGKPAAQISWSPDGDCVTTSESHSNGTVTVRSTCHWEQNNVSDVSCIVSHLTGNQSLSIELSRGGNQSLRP

[3] = target: T3, Human CD200R, full length, on transduced U937 cells (U937-CD200R) (human, UniProt Q8TD46 25-348); assay: Flow cytometry on U937-CD200R cells, 4 hours incubation at 37 C, fluorescent anti-human secondary antibody
T3 construct: whole, on cells; also called U937-CD200R cells; CD200R-expressing U937 cells
T3 sequence (looked up): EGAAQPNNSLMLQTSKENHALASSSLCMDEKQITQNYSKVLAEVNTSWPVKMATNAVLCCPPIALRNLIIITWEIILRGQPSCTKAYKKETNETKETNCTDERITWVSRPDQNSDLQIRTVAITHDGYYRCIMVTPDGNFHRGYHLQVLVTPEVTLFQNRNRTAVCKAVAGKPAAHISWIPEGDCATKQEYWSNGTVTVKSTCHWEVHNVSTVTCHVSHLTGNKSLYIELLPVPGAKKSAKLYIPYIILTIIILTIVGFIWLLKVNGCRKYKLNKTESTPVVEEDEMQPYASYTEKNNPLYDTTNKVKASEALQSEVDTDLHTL
Procedure: Construct treatment (50 μL) was performed starting from 10 μg/mL with 3-fold dilutions up to 10 concentrations with FACS buffer and incubated for 1-hour, 4-hours and 24-hours at 37° C. At the end of each time point, cells were collected and washed. 10 μg/mL of anti-human secondary antibody was added and incubated for 30 minutes at 4° C. Cells were washed post incubation and stained to check viability (1 μL dye per million cells per mL 1×PBS) for 20 minutes at 4° C. Cells were washed and fixed with Fixation buffer (100 μL per test) at 4° C. for 20 minutes. Post incubation, cells were washed and the pellet was re-suspended in FACS buffer (100 μL per test) for data acquisition on flow cytometer.

[4] = target: T4, Recombinant Cyno CD200R, His-tagged (Creative Biomart CD200R1-3483C) (cynomolgus monkey); assay: SPR (BIAcore), DS-118 captured (0.5 ug/mL), CynoCD200R1 flowed at 1000 nM to 62.5 nM, 25 C, 1:1 Binding model, run 2
T4 construct: Bought; also called cynomolgus CD200R1; cynomolgus CD200R
Procedure: For human CD200 constructs: anti-human Fc (GE Healthcare) was covalently immobilized on a BIAcore CM5 sensor chip (Cytiva, BR100530) by amine coupling using a Cytiva kit (BR100839) following the manufacturer's instructions, targeting immobilization of 8,000-11,000 RU. CD200-Fc proteins were diluted to 0.5 μg/mL to 4 μg/mL in running Buffer (1×HBS-EP+pH7.4 (Cytiva BR100669), HEPES Buffered Saline pH 7.4 containing 3 mM EDTA and 0.05% v/v Surfactant P20) and flowed for 25 to 100 seconds at 10 μL/min over the immobilized Anti-Human IgG Fc, with a stabilization time of 60 seconds. Between 35 and 250 RUs of CD200-Fc were captured, with higher RUs used for cynomolgus CD200R binding experiments. […] Analysis temperature was 25° C. This was followed by regeneration of the surface with 30-90 second pulse of 3M MgCl₂ flowed at […] flow rate followed by stabilization of the surface with 60 second flow of running buffer.
For mouse CD200 constructs, muCD200R-Fc (Creative Biomart CD200R1-458M) diluted to 1 μg/mL in running buffer was flowed over the immobilized Anti-Human IgG Fc, with CD200 monomers serially diluted and flowed over captured CD200R. Other details were as above. Data analysis: experimental sensorgrams were analyzed in BIAevaluation software (GE Healthcare). The curves obtained were fitted to 1:1 Langmuir binding model by setting Rmax and RI as local parameters. Rate equations using standard parameters (e.g. ligand concentration, time) were used for iterative curve fitting. Closeness of fit was determined by algorithms provided by the manufacturer in the BIAevaluation software, and data accepted if the Chi² value was less than 10% of Rₘₐₓ, and the U value was less than or equal to 15.

Cyno PBMCs = target: T5, Cyno PBMCs; assay: Flow cytometry, % binding on cynomolgus PBMCs gated on live cells, 1 hour at 37 C, anti-human secondary antibody; the target protein on the cells is not named
T5 construct: No receptor was assigned; also called cynomolgus monkey PBMCs, gated on live cells
Procedure: PBMC cells were re-suspended with a density of 0.1 million cells per assay point, with 50 μL FACS buffer (1×PBS+2% FBS). Dilutions of huCD200-Fc in 50 μL were added, starting at 10 μg/mL with 3-fold dilutions up to 10 concentrations with FACS buffer, and incubated for 1-hour at 37° C. At the end of each time point, cells were collected and washed (addition of 200 μL FACS buffer and centrifugation at 1400 RPM). 10 μg/mL of anti-human secondary antibody (Abcam Ab98596) was added together with excess Fc block (Innovex Biosciences no. NB309), and incubated for 30 minutes at 4° C. Cells were washed post incubation and stained to check viability (1 μL dye per million cells per mL 1×PBS, ThermoFisher C34557A) for 20 minutes at 4° C. Cells were washed and fixed with Fixation buffer (100 μL per test, BD Sciences 554655) at 4° C. for 20 minutes. Post incubation, cells were washed and the pellet was re-suspended in FACS buffer (100 μL per test) for data acquisition on the flow cytometer.

binding result [2]: no binding
Kd [4]: 204 nM
koff [4]: 0.0596 s⁻¹
kon [4]: 292000 M⁻¹ s⁻¹
EC50 (Cyno PBMCs): 1.96 µg/mL
B1: DS-118 (mutated human CD200-Fc fusion protein, K130Y, I131Y, IgG4 S228P Fc) (Fc fusion)
chain: QVQVVTQDEREQLYTPASLKCSLQNAQEALIVTWQKKKAVSPENMVTFSENHGVVIQPAYKDKINITQLGLQNSTITFWNITLEDEGCYMCLFNTFGFGYYSGTACLTVYVQPIVSLHYKFSEDHLNITCSATARPAPMVFWKVPRSGIENSTVTLSHPNGTTSVTSILHIKDPKNQVGKEVICQVLHLGTVTDFKQTVNKGPPCPPCPAPEFLGGPSVFLFPPKPKDTLMISRTPEVTCVVVDVSQEDPEVQFNWYVDGVEVHNAKTKPREEQFNSTYRVVSVLTVLHQDWLNGKEYKCKVSNKGLPSSIEKTISKAKGQPREPQVYTLPPSQEEMTKNQVSLTCLVKGFYPSDIAVEWESNGQPENNYKTTPPVLDSDGSFFLYSRLTVDKSRWQEGNVFSCSVMHEALHNHYTQKSLSLSLGK
notes: also called mutated CD200-Fc; mutant CD200-Fc
fold increase in affinity from wild type [1]: > 130 fold
EC50 (read off the curve) [3]: ~0.9 µg/mL
